The record followed here is patent publication US20240360189A1 (LUXEMBOURG INSTITUTE OF HEALTH LIH, published 2024).

This test deals with T1, HER2 on BT474 breast tumour cells (human, UniProt P04626 23-1255).
T1 construct: whole, on cells; also called HER2-positive BT474 cells
Nature of the test: flow cytometry, cross-linking of NK92MI and BT474 cells (data not shown). (In flow cytometry, cells or beads pass a laser one at a time.)

B1: Z199 scFv anti-NKG2A.C4bp(beta).Fc[knob]/2D3 VHH anti-HER2.C4bp(beta).Fc[hole] bispecific pseudo-IgG (bispecific antibody)
chain 1: RSQVKLQQSGGGLVKPGGSLKLSCAASGFTFSSYAMSWVRQSPEKRLEWVAEISSGGSYTYYPDTVTGRFTISRDNAKNTLYLEISSLRSEDTAMYYCTRHGDYPRFFDVWGAGTTVTVSSGGGGSGGGGSGGGGSQIVLTQSPALMSASPGEKVTMTCSASSSVSYIYWYQQKPRSSPKPWIYLTSNLASGVPARFSGSGSGTSYSLTISSMEAEDAATYYCQQWSGNPYTFGGGTKLEIKRAAASGAGGGGSSGAGGSAGGGGSSGGGGSAGGGGSIQEAPKPECEKALLAFQESKNLCEAMENFMQQLKESGMTMEELKYSLELKKAELKAKLLEPKSCDKTHTCPPCPAPELLGGPSVFLFPPKPKDTLMISRTPEVTCVVVDVSHEDPEVKFNWYVDGVEVHNAKTKPREEQYNSTYRVVSVLTVLHQDWLNGKEYKCKVSNKALPAPIEKTISKAKGQPREPQVYTLPPCRDELTKNQVSLWCLVKGFYPSDIAVEWESNGQPENNYKTTPPVLDSDGSFFLYSALTVDKSRWQQGNVFSCSVMHEALHNHYTQKSLSLSPGK
chain 2: not shown
notes: also called Z199/2D3
As for B1, the binding result is listed as “binds”.
